The target of the experiment is T1, PD-1 (as used in the competitive ELISA) (UniProt Q15116 25-167, limits assumed).
T1 construct: PD-1 is inferred as the target from the next sentence on PD-1 receptor occupancy
The experiment in a line: competitive ELISA; competing ligand not named. Background: ELISA stands for enzyme-linked immunosorbent assay.

Where “and” joins values, the source holds several entries; their conditions need not be identical. Equal entries are not always repeated.

The IC50 is the concentration at which inhibition is half-maximal. Low values mean higher potency, high ones lower potency.

B1: toripalimab (antibody, human IgG4 S228P, kappa, V domains shown)
VH: QGQLVQSGAEVKKPGASVKVSCKASGYTFTDYEMHWVRQAPIHGLEWIGVIESETGGTAYNQKFKGRVTITADKSTSTAYMELSSLRSEDTAVYYCAREGITTVATTYYWYFDVWGQGTTVTVSS
VL: DVVMTQSPLSLPVTLGQPASISCRSSQSIVHSNGNTYLEWYLQKPGQSPQLLIYKVSNRFSGVPDRFSGSGSGTDFTLKISRVEAEDVGVYYCFQGSHVPLTFGQGTKLEIKR
notes: Humanized IgG4 mAb; also called JS001; anti-PD-1 antibody toripalimab
Turning to B1, the IC50 was 3 nM and ~0.5 µg/mL.

The values are drawn from US20230107856A1 (SHANGHAI JUNSHI BIOSCIENCES, published 2023).
